Target: the molecule itself
Experiment: size exclusion gel filtration chromatography (Superdex 200 10/30, 20 mM HEPES pH 7.4, 150 mM NaCl); no self-association, elutes as a monomer
Procedure: The solvent is 20 mM HEPES solution of pH 7.4 containing 150 mM NaCl. The larger the molecular weight/molecular volume, the faster the flow in the column. Therefore, peaks appear on the left side in the figure. The spectra indicated with dotted lines in FIG. 1 show the absorptions of 10 μM DsRed (tetramer), tdTomato (dimer), and mCherry (monomer) in order from the left. […] Since the peak position of mfGFP is almost the same as that of mCherry, it can be said that

B1: monomeric green-yellow fluorescent protein mfGFP (other)
chain: MVSKGEEASGRALFQYPMTSKIELNGEINGKKFKVAGEGFTPSSGRFNMHAYCTTGDLPMSWVVIASPLQYGFHMFAHYPEDITHFFQECFPGSYTLDRTLRMEGDGTLTTHHEYSLEDGCVTSKTTLNASGFDPKGATMTKSFVKQLPNEVKITPHGPNGIRLTSTVLYLKEDGTIQIGTQDCIVTPVGGRKVTQPKAHFLHTQIIQKKDPNDTRDHIVQTELAVAGNLWHGMDELYK
notes: It was purified with an N-terminal polyhistidine tag; not shown: N-terminal polyhistidine tag from the bacterial expression vector pRSETB
binding result: no binding (tested: 10 µM)

— US20190085039A1 (OSAKA UNIVERSITY, published 2019)
